Assay results from PMC1334386 (PLoS Biology, 2006).
One block for each binder: values may come before it.

How the values were obtained:
Settings in all cases: both partners purified
[1] = target: T1, HAUSP TRAF-like domain (residues 53–206) (UniProt Q93009 53-206); experiment: SEC; gel filtration on Superdex-200 (10/30); proteins incubated at 4 °C for at least 45 min; 25 mM Tris (pH 8.0), 100 mM NaCl, 2 mM DTT; fractions on SDS-PAGE, Coomassie
T1 construct: Cloned into pGEX-2T; source: E. coli BL21(DE3), purified to homogeneity

[2] = target: T2, HAUSP TRAF-like domain (residues 1–206) (UniProt Q93009 1-206); experiment: as above
T2 construct: Construct not described in the methods; source: purified to homogeneity as previously described

[3] = target: T1, HAUSP TRAF-like domain (residues 53–206); experiment: ITC; 10 mM HEPES (pH 8.0), 100 mM NaCl; 4 °C

T1 sequence (Q93009 53-206): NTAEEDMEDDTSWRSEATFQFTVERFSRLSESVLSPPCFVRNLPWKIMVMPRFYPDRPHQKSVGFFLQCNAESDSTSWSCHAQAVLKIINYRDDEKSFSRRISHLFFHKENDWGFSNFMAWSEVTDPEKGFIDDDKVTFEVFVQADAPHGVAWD
T2 sequence (Q93009 1-206): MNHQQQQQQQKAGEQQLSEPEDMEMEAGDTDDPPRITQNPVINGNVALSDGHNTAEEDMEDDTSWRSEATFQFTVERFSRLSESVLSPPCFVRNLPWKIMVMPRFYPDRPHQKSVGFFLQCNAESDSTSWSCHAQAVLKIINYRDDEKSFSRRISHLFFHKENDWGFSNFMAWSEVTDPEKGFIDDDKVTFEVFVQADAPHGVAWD

B1: MDM2 fragment (residues 223–289) (domain or fragment, human, UniProt Q00987 223-289, looked up)
chain: DLDAGVSEHSGDWLDQDSVSDQFSVEFEVESLDSEDYSLSEEGQELSDEDDEVYQVTVYQAGESDTD
notes: source: purified to homogeneity as previously described
binding result [1]: binds

B3: MDM2 peptide (residues 208–242) (peptide, UniProt Q00987 208-242, looked up)
peptide: ERSSSSESTGTPSNPDLDAGVSEHSGDWLDQDSVS
notes: human MDM2, residues 208-242; also called MDM2 (residues 208–242) peptide
Kd [3]: 3000 nM

Other lines, results leading:

binding result [2]: binds
B2: MDM2 (residues 208–289) (domain or fragment, human, UniProt Q00987 208-289, looked up)
chain: ERSSSSESTGTPSNPDLDAGVSEHSGDWLDQDSVSDQFSVEFEVESLDSEDYSLSEEGQELSDEDDEVYQVTVYQAGESDTD
notes: also called MDM2 fragment; source: purified to homogeneity as previously described

binding result [1]: binds
B4: MDM2 fragment (residues 170–232) (domain or fragment, human, UniProt Q00987 170-232, looked up)
chain: ENSDELSGERQRKRHKSDSISLSFDESLALCVIREICCERSSSSESTGTPSNPDLDAGVSEHS
notes: as for B1
